Assay results as given in the supplement of paper PMC9170038.

Test system: MS2 coat protein
Assay: apparent KD of MS2 coat protein; designed switch direction (-1 OFF switch, 1 ON switch): -1; higher = weaker reporter binding
How it was run: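 For each design, the apparent KD is the median over clusters of curves fitted to normalised cluster fluorescence. Clusters held RNA switches with common flanks, transcribed on Illumina chips by stalled E. coli RNA polymerase. These were titrated with SNAP-549-labelled MS2 coat protein, doubling from 0.7 or 1.5 nM to 3 µM, without input, with 200 uM small-molecule ligand, or with an oligonucleotide input.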

[1] = input ligand: microRNA oligo, concentration not stated
[2] = Eterna round: R95, input ligand: microRNA oligo, concentration not stated

Row | Sequence | apparent KD of MS2 coat protein (input ligand: FMN 200 uM) | apparent KD of MS2 coat protein (input ligand: none) | other results
1 | GUCAGCUCGUCAGGAUAUGAACAUGAGGAUCACCCAUGUAAGAUCAAGCUGCUUCGGCAGCAAGUUCAGAAGGGACGAGCUGAC [ENG2/10-B1] (Eterna round: R96, puzzle: Exclusion NG 2) | 161 nM | 113 nM | apparent KD of MS2 coat protein [1]: 78.7 nM
2 | GUCAGCUCGUGAGGAUAUACAUGAGGAUCACCCAUGUGAUCAAUAGCAGCUUCGGCUGCAUUAAUGUAGAAGGCACGAGCUGAU [ENG2/5-A2] (Eterna round: R96, puzzle: Exclusion NG 2) | 10.1 nM | 203 nM | apparent KD of MS2 coat protein [1]: 166 nM
3 | GUCAGCUCGUGAGGAUAUACAUGCGUGCUUCGGCACGUAUGAUAGAUCACAUGAGGAUCACCCAUGUAGAAGGCACGAGCUGAU [ENG2/4-A2] (Eterna round: R96, puzzle: Exclusion NG 2) | 21.7 nM | 11.8 nM | apparent KD of MS2 coat protein [1]: 10.4 nM
4 | GUCAUCAAACAUGGGUUAAACAUGAGGAUCACCCAUGUAUACAAGUUUUUUGCUCGUCUUAUAAUAAGUUUGAUGAC [Antenna 7 - Jieux - Sensor, turn-off variant 1] (Eterna round: R97, puzzle: Sensor, turn-off variant 1) | 59.9 nM | 66.8 nM | –
5 | GUCAUGUUAGGAUAUUUCCCAGCUGAGACUACAGAUUGUAGGAAGAAGGAACAUGAGGAUCACCCAUGUGAAAA [Eternabot (L2) Solution 28] (Eterna round: R97, puzzle: Exclusion 4) | 36.6 nM | 39 nM | –
6 | GUCCCGGAAGGAUAUGCAGAGCACGAUCCCGUUAAAGGGCCACAUGAGGAUCACCCAUGUAGAAGGUCCAGGGC [EX2 B.21] (Eterna round: R97, puzzle: Exclusion 2) | 32.8 nM | 13.1 nM | –
7 | GUCCUACAUGAGGAUCACCCAUGUGAGGAUAUGCGAUUAGCUGCUAGGUAGUUAGUAUGUAGAAGGCGCAUGAA [EX1 #77] (Eterna round: R97, puzzle: Exclusion 1) | 15.9 nM | 14.6 nM | –
8 | GUCCUCUUGACAUGAGGAUCACCCAUGUAUUAUUUGUUAACUGAGGAUAUACUCUUAUUUUUUAUGUAGAAGGCAGAUUUGUUC [JR_ExcNG3_Sub022] (Eterna round: R96, puzzle: Exclusion NG 3) | – | – | apparent KD of MS2 coat protein [1]: 32.1 nM
9 | GUCCUGGAAUAUCAGUCGCACAUGAGGAUCACCCAUGUCAUGGGUAGAUCAAUAAAUAAAGAUACUGCUCGUCUUAU [Cac sensor turnoff var1 sub3] (Eterna round: R97, puzzle: Sensor, turn-off variant 1) | 186 nM | 409 nM | –
10 | GUCUACAUGACAUGAGGAUCACCCAUGUGUUAUAUUUUUACUAAGGAUAUAUUUUUAAUGUUGAGAUAGAAGGUAGUUUCGGUC [JR_ExcNG3_Sub093] (Eterna round: R96, puzzle: Exclusion NG 3) | – | – | apparent KD of MS2 coat protein [1]: 32.8 nM
11 | GUCUCACAUGAGGAUCACCCAUGUGAGGAUAUGGUUUCGCUGGCCGUAGCCAGUGGAACCAGAAGGCGCAUGAU [Mat - Exclusion 1 - JL Mod - D3] (Eterna round: R97, puzzle: Exclusion 1) | 24.7 nM | 23 nM | –
12 | GUCUUGUCAGGAUAUCUUACAUAACAAUCGUAGUUACAAUUGGAGAAGGGACAUGAGGAUCACCCAUGUUAGCA [tap-tap-tappy36] (Eterna round: R97, puzzle: Exclusion 4) | 26.5 nM | 26.9 nM | –
13 | GUGACCAUAGGAUAUACAUGAGGAUCACCCAUGUGCAGGUCGGAAGACCCGCGGUCAUGUAGAAGGAUGUAAUU [EX3 A.23] (Eterna round: R97, puzzle: Exclusion 3) | 18.2 nM | 16.2 nM | –
14 | GUGAGGUAAGGAUAUAGUAGUGAAGGUAAGAUAUGAGAAUGCUAGAAGGUACAUGAGGAUCACCCAUGUUCGGG [JR_Exclu4_Sub089] (puzzle: Exclusion 4) | – | – | apparent KD of MS2 coat protein [2]: 173 nM
15 | GUGAGUAGUCAGGAUAUGCUGUACAAAAGUACAGCAGAAGGGACUACAUGAGGAUCACCCAUGUUUACUUCAUG [Omei Ex6 B5] (Eterna round: R97, puzzle: Exclusion 6) | 522 nM | 609 nM | –
16 | GUGGAACAAGGAUAUCUAACCUCGGACAUGAGGAUCACCCAUGUAUGUCUCAAGAGACCUAGAGAAGGUGUUCGUG [Eternabot (L1) Solution 32] (Eterna round: R97, puzzle: Exclusion 5) | 50.8 nM | 30.7 nM | –

Row | Sequence | apparent KD of MS2 coat protein (input ligand: FMN 200 uM) | apparent KD of MS2 coat protein (input ligand: none) | other results
17 | GUGUAACAUGAGGAUCACCCAUGUCAGGAUAUGCGAAUUUCAUCAAAAGAUGAAAUUUGCAGAAGGGACUGUAC [Omei Ex1 A24] (Eterna round: R97, puzzle: Exclusion 1) | 99.2 nM | 60.9 nM | –
18 | GUGUAACUACACGGGCUCAACAUGAGGAUCACCCAUGUCAUACACGCAAGCUUUUCGCUUGUCUUAUCUGUCCGUGA [Mainesleed] (puzzle: Sensor v3, turn-off variant 1) | – | – | apparent KD of MS2 coat protein (Eterna round: R95, input ligand: FMN 200 uM): 12.5 nM; apparent KD of MS2 coat protein [2]: 14.2 nM; apparent KD of MS2 coat protein (Eterna round: R95, input ligand: none): 11.3 nM
19 | GUGUACGGAGGAUAUAUAUGGGCAGCAUACGCUGCAGCUUCACAUGAGGAUCACCCAUGUAGAAGGCUGUGCAC [JL-ex2-2.10 Brourd mod] (puzzle: Exclusion 2) | – | – | apparent KD of MS2 coat protein [2]: 19.9 nM
20 | GUGUAGAUAGGAUAUGCUGGAAUCUAGCGAAGCUAGGUUCUACAUGAGGAUCACCCAUGUAGAAGGGUCUACAC [Dot plot directed A v12] (puzzle: Exclusion 2) | – | – | apparent KD of MS2 coat protein [2]: 28.5 nM
21 | GUGUAGUGAGGAUAUACAUGAGGAUCACCCAUGUGAAUAAGAUAGAAUAAGAUAAAGUGUAGAAGGUAUAGUGU [Excluse me!!! 17 - Jieux - Exclusion 3] (Eterna round: R96, puzzle: Exclusion 3) | 60.8 nM | 58.4 nM | apparent KD of MS2 coat protein [1]: 41.8 nM
22 | GUGUAGUGAGGAUAUACAUGAGGAUCACCCAUGUGAAUAAGAUAGAAUAAGAUAAAGUGUAGAAGGUAUAGUGU [Excluse me!!! 17 - Jieux - Exclusion 3] (puzzle: Exclusion 3) | – | – | apparent KD of MS2 coat protein [2]: 50 nM
23 | GUGUGCACGCUGCGAUCCUACAUGAGGAUCACCCAUGUGGUCUGGUGGCGUGGGUCACCGGACUUGGCUCGUCUUGG [salish99_S_TOV1_R5_077] (Eterna round: R97, puzzle: Sensor, turn-off variant 1) | 171 nM | 169 nM | –
24 | GUUAACGCAGGAUAUUAGUACAUGCACAUGAGGAUCACCCAUGUUUAGUGGGUCUAGGAAUAAGAAGGGCGAUGAA [EX5 #21] (Eterna round: R97, puzzle: Exclusion 5) | 210 nM | 227 nM | –
25 | GUUACACAUGAGGAUCACCCAUGUGAGGAUAUGGAUUCGUUGCAAGUAGGCGAUGGAUCCAGAAGGCGCGUGAG [JR_Ex1_Sub080] (Eterna round: R97, puzzle: Exclusion 1) | 58.7 nM | 50.5 nM | –
26 | GUUAUACAUGAGGAUCACCCAUGUCAGGAUAUUAUCUAUCUUUGGAAGCAUUGAUCGCUAAGAAGGGACUAGUA [Bubbles2] (Eterna round: R97, puzzle: Exclusion 1) | 28 nM | 33 nM | –
27 | GUUAUGUCAGGAUAUGCUAAUGAUGAGUGAUCAGACAUGAUGUAGAAGGGACAUGAGGAUCACCCAUGUACUAA [EX4 #9] (Eterna round: R97, puzzle: Exclusion 4) | 30.6 nM | 29 nM | –
28 | GUUAUUUCAGGAUAUACAUGAGGAUCACCCAUGUAAGCAAGGUGCCUGCAUCCCGACUGUAGAAGGGAAAUGAG [Eternabot (L2) Solution 61] (Eterna round: R97, puzzle: Exclusion 3) | 29.9 nM | 28.5 nM | –
29 | GUUGGUUGAGAGGAUAUUGUACGCGAUGAGUGUCGAGAAGGUUCAACAUGAGGAUCACCCAUGUGGCUGAGUAA [Eternabot (L1) Solution 40] (Eterna round: R97, puzzle: Exclusion 6) | 442 nM | 32.1 nM | –
30 | GUUGUUUAUGUAGGAUAUGCCUGGCGUGCCUUUGCAGAAGGACAUGAGGAUCACCCAUGUAUUGCGGUCUGCGUUCAGAUCGCA [salish99_ExNG1_r4_039] (Eterna round: R96, puzzle: Exclusion NG 1) | 59.5 nM | 39 nM | apparent KD of MS2 coat protein [1]: 26 nM
31 | GUUUCACAUGAGGAUCACCCAUGUGAGGAUAUACAUUUGUUAACCGUAGUUAAUAGAUGUAGAAGGCGCGUGAU [JRxlusion 4 - Jieux - Exclusion 1] (Eterna round: R97, puzzle: Exclusion 1) | 50.6 nM | 62.6 nM | –
32 | GUUUCACAUGAGGAUCACCCAUGUGAGGAUAUGGACUUUUUGGCAAUAGUCGUUGGGUUCAGAAGGCGCGUGAU [JR_Exc1_Sub006] (Eterna round: R97, puzzle: Exclusion 1) | 45.2 nM | 49.4 nM | –
